Biological target: SARS-CoV-2 S receptor-binding domain (SRBD), residues 319-541 (SARS-CoV-2) (UniProt P0DTC2)
Assay: ELISA on coated antigen

In the case of “rCR3022 (recombinant form of the cross-reactive SARS-CoV SRBD mAb CR3022) (antibody)”, the EC50 was 1.1 ng/mL.
